Source: patent publication US12398194

Columns and labels:
CD22 (human) = CD22 (human) (UniProt P20273); assay: SPR (Biacore T200), scFv-Fc captured on an anti-IgG CM5 chip, interaction partner injected, 1:1 Langmuir fit
CD19 (human) = CD19 (human) (UniProt P15391); assay: as above
Chain of CD19 (human) (P15391 21-278 limits assumed): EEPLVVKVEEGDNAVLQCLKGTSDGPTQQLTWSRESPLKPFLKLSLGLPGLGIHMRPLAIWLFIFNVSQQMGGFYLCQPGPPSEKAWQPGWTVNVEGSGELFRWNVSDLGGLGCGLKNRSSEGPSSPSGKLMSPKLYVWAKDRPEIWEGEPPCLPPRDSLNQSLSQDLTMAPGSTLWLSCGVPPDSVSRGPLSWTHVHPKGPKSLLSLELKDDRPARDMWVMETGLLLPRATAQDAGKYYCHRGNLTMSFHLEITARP

Binder	Kd (CD22 (human)) [nM]	koff (CD22 (human)) [s⁻¹]	kon (CD22 (human)) [M⁻¹ s⁻¹]	koff (CD19 (human)) [s⁻¹]	kon (CD19 (human)) [M⁻¹ s⁻¹]
humanized CD22ALAb scFv (scFv, part only; not given: VH-VL linker and Fc, not shown: another chain or arm of the molecule; a dimerising Fc or GST; small tags and cut ends) scFv: EVQLVESGAEVKKPGSSVKVSCKASGYTFTNYWINWVRQAPGQGLEWIGNIYPSDSFTNYNQKFKDRATLTVDKSTSTAYLELRNLRSDDTAVYYCTRDTQERSWYFDVWGQGTLVTVSSDIVMTQSPATLSVSPGERATLSCRSSQSLVHSNGNTYLHWYQQKPGQAPRLLIYKVSNRFSGVPARFSGSGSGVEFTLTISSLQSEDFAVYYCSQSTHVPWTFGQGTRLEIK	32	0.00226	68300		
murine CD19ALAb scFv (scFv, part only; not given: VH-VL linker and Fc, not shown: another chain or arm of the molecule; a dimerising Fc or GST; small tags and cut ends) scFv: QVQLQQSGAELVRPGSSVKISCKASGYAFSSYWMNWVKQRPGQGLEWIGQIWPGDGDTNYNGKFKGKATLTADESSSTAYMQLSSLASEDSAVYFCARRETTTVGRYYYAMDYWGQGTTVTVSSDIQLTQSPASLAVSLGQRATISCKASQSVDYDGDSYLNWYQQIPGQPPKLLIYDASNLVSGIPPRFSGSGSGTDFTLNIHPVEKVDAATYHCQQSTEDPWTFGGGTKLEIK				0.000328	178000
